Laboratory results: US10702592B2, “Peptides and combination of peptides for use in immunotherapy against NHL and other cancers” (Immatics Biotechnologies GmbH, priority 2016, dated 2020)

Target: HLA-A*02:01 (Homo sapiens, UniProt P04439, D140Y/D185E/D98H/E176V/E277Q/G131W/G231S/I119V/I121R/I166T/I218V/L300P/L318F/N151K/N90K/P208A/P217A/Q86G/Q94H/R138H/R169H/T345S)
Test: MHC binding assay (UV-ligand exchange, beta2m ELISA)
Settings: binding to HLA-A*02:01, UV-ligand exchange
Text: Candidate peptides for T cell based therapies according to the present invention were further tested for their MHC binding capacity (affinity). The individual peptide-MHC complexes were produced by UV-ligand exchange, where a UV-sensitive peptide is cleaved upon UV-irradiation, and exchanged with the peptide of interest as analyzed. Only peptide candidates that can effectively bind and stabilize the peptide-receptive MHC molecules prevent dissociation of the MHC complexes. To determine the yield of the exchange reaction, an ELISA was performed based on the detection of the light chain (β2m) of stabilized MHC complexes. The assay was performed as generally described in Rodenko et al. (Rodenko et al., 2006).
96 well MAXISorp plates (NUNC) were coated over night with 2 ug/ml streptavidin in PBS at room temperature, washed 4× and blocked for 1 h at 37° C. in 2% BSA containing blocking buffer. Refolded HLA-A*02:01/MLA-001 monomers served as standards, covering the range of 15-500 ng/ml. Peptide-MHC monomers of the UV-exchange reaction were diluted 100 fold in blocking buffer. Samples were incubated for 1 h at 37° C., washed four times, incubated with 2 ug/ml HRP conjugated anti-β2m for 1 h at 37° C., washed again and detected with TMB solution that is stopped with […]. Absorption was measured at 450 nm. Candidate peptides that show a high exchange yield (preferably higher than 50%, most preferred higher than 75%) are generally preferred for a generation and production of antibodies or fragments thereof, and/or T cell receptors or fragments thereof, as they show sufficient avidity to the MHC molecules and prevent dissociation of the MHC complexes.

Peptide exchange (MHC class I binding score, peptide exchange yield), “+++” (≥50 = +++):
6 (TLITLPLLFL; listed as Homo sapiens) [compound 6]
10 (FLLVGTQIDL; listed as Homo sapiens) [compound 10]
11 (GLDTVVALL; listed as Homo sapiens) [compound 11]
18 (KLTDQPPLV; listed as Homo sapiens) [compound 18]
32 (VLNEDELPSV; listed as Homo sapiens) [compound 32]
34 (LLWEDGVTEA; listed as Homo sapiens) [compound 34]
39 (QLLPQGIVPAL; listed as Homo sapiens) [compound 39]
45 (FILDDSALYL; listed as Homo sapiens) [compound 45]
48 (KILDEDLYI; listed as Homo sapiens) [compound 48]
50 (LLLDGLIYL; listed as Homo sapiens) [compound 50]
56 (GLQDLLFSL; listed as Homo sapiens) [compound 56]
58 (QLAPFLPQL; listed as Homo sapiens) [compound 58]
63 (ALIEEAYGL; listed as Homo sapiens) [compound 63]
65 (NLTDVSPDL; listed as Homo sapiens) [compound 65]

Peptide exchange (MHC class I binding score, peptide exchange yield), “++” (≥20% = ++):
4 (TLLGFFLAKV; listed as Homo sapiens) [compound 4]
14 (LLSDPTPGA; listed as Homo sapiens) [compound 14]
16 (TLIAAILYL; listed as Homo sapiens) [compound 16]
38 (YLTAEILELAGN; listed as Homo sapiens) [compound 38]

Peptide exchange (MHC class I binding score, peptide exchange yield), “++++” (≥75% = ++++):
15 (IIIEDLLEA; listed as Homo sapiens) [compound 15]
23 (ALVEDIINL; listed as Homo sapiens) [compound 23]
31 (KLYDEESLL; listed as Homo sapiens) [compound 31]
49 (TILGDPQILL; listed as Homo sapiens) [compound 49]
55 (ILVEVDLVQA; listed as Homo sapiens) [compound 55]
64 (FLVEVSNDV; listed as Homo sapiens) [compound 64]
69 (TLLAFPLLL; listed as Homo sapiens) [compound 69]
70 (VLIEILQKA; listed as Homo sapiens) [compound 70]
71 (VLLDYVGNVQL; listed as Homo sapiens) [compound 71]

Peptide exchange (MHC class I binding score, peptide exchange yield), “+” (≥10% = +):
54 (DIFDAMFSV; listed as Homo sapiens) [compound 54]
